Test system: c-Src
Test: phosphorylation enrichment, bacterial display (enrichment ratio); higher = better substrate or ligand; peptides without Tyr show the background
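Throughout, for SH2 binding enrichment of the phosphorylated peptide, bacterial display: peptide library displayed on the E. coli surface as eCPX fusions, selected cells deep-sequenced, score is each peptide's frequency after selection divided by its frequency in the input.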
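Throughout, for phosphorylation enrichment, bacterial display: 11-residue human phosphosite peptides and single-mutation variants displayed on the E. coli surface, counted by deep sequencing, each peptide's frequency after selection divided by its frequency in the unselected input library; frequency after pTyr selection over input frequency; kinase dosed for 20-30% of maximal phosphorylation in three min.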

Sequence | phosphorylation enrichment
YSSLGYPLPEG [ZSWIM4_Y87_P89L] | 1.57
FAASSYSFSDL [EMD_Y59_S54F] | 0.639
TVLWQYTGTRP [UGT1A1_Y337_R336Q] | 0.22
SHNELYYEEAE [VANGL1_Y344] | 0.578
KQQEIYQELTQ [CD209_Y239] | 5.59
DKMEAYNIDET [TEKT4_Y210] | 0.492
ADYPDCKYRPR [SOX11_Y116_Y116C] | 0.406
HESEIYGKVCF [CSRP3_Y57_C58G_YF] | 4.61
RRFVFYFSFLL [PTEN_Y177_YF] | 0.611
LEQDEYALRSH [HADHB_Y244] | 0.96
RLLVVYPWTQR [HBB_Y36] | 0.53
SESSFYKSLNL [NGEF_Y289_A286S_YF] | 0.508
KSNSDYVDVLP [SH2D1B_Y127_N122K] | 0.449
SSDKVYAHQMD [MLH1_Y379_V384D] | 0.491
CSEETYRLMLQ [RET_Y981_M980T] | 0.627
LMIEEYLTKEP [BAG3_Y457_L462P] | 1.49
RLLVVFPWTQR [HBB_Y36_Y36F] | 0.584

Sequence | phosphorylation enrichment
PARLEYFENEK [IRS1_Y46_YF] | 0.684
IIRYNYLLDVL [FGFR4_Y237_S232I] | 0.49
APQYTYAQGGQ [FLNA_Y1763] | 0.455
SPRDTYSDRIG [CTPS1_Y567_S571I] | 0.406
RISRKYKKVRF [F8_Y442_G439S] | 0.749
VLRQVYVDFEG [KMT2B_Y1707_R1705Q] | 1.42
DHTVNYVLKCR [PLEKHG4_Y1068_R1064H] | 0.409
DLDTDYGSGYP [RNASEH2A_Y206] | 0.652
FSQETYFRVSN [ABCD1_Y180_Q178E_YF] | 1.51
EQKRFYNAMKK [SCN5A_Y1495_K1493R_YF] | 0.441
NTGLEYIKFTW [HRH1_Y386_D385E] | 0.495
LGSWTYPKTVS [ROS1_Y144_T145P] | 0.415
MAFDRYVAICS [OR8D4_Y123_C120Y_YF] | 0.489
SDGHEYIYVDP [PDGFRB_Y579] | 2
ERDYTYEELLN [EIF2S2_Y176] | 0.807
FEEDSYSHVMA [FDPS_Y388_I391V_YF] | 0.779

Biological target: Grb2 SH2 (UniProt P62993)
Test: SH2 binding enrichment of the phosphorylated peptide, bacterial display (enrichment ratio); higher = better substrate or ligand; peptides without Tyr show the background

Sequence of Grb2 SH2 (P62993 whole entry, looked up): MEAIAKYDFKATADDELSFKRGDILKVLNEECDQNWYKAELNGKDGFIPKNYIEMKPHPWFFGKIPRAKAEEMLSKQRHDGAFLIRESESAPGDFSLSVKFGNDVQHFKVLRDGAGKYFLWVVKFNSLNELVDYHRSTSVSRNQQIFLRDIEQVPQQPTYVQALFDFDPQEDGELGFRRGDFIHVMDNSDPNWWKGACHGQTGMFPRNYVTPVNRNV

Sequence | SH2 binding enrichment
YSSLGYPLPEG [ZSWIM4_Y87_P89L] | 0.986
FAASSYSFSDL [EMD_Y59_S54F] | 0.864
TVLWQYTGTRP [UGT1A1_Y337_R336Q] | 1.01
SHNELYYEEAE [VANGL1_Y344] | 1.05
KQQEIYQELTQ [CD209_Y239] | 1.14
DKMEAYNIDET [TEKT4_Y210] | 0.82
ADYPDCKYRPR [SOX11_Y116_Y116C] | 0.833
HESEIYGKVCF [CSRP3_Y57_C58G_YF] | 0.998
RRFVFYFSFLL [PTEN_Y177_YF] | 0.752
LEQDEYALRSH [HADHB_Y244] | 0.755
RLLVVYPWTQR [HBB_Y36] | 1.99
SESSFYKSLNL [NGEF_Y289_A286S_YF] | 0.775
KSNSDYVDVLP [SH2D1B_Y127_N122K] | 0.757
SSDKVYAHQMD [MLH1_Y379_V384D] | 0.729
CSEETYRLMLQ [RET_Y981_M980T] | 0.643
LMIEEYLTKEP [BAG3_Y457_L462P] | 0.743
RLLVVFPWTQR [HBB_Y36_Y36F] | 1.94

Sequence | SH2 binding enrichment
PARLEYFENEK [IRS1_Y46_YF] | 0.834
IIRYNYLLDVL [FGFR4_Y237_S232I] | 1.34
APQYTYAQGGQ [FLNA_Y1763] | 0.778
SPRDTYSDRIG [CTPS1_Y567_S571I] | 0.844
RISRKYKKVRF [F8_Y442_G439S] | 0.461
VLRQVYVDFEG [KMT2B_Y1707_R1705Q] | 0.833
DHTVNYVLKCR [PLEKHG4_Y1068_R1064H] | 0.67
DLDTDYGSGYP [RNASEH2A_Y206] | 0.816
FSQETYFRVSN [ABCD1_Y180_Q178E_YF] | 0.481
EQKRFYNAMKK [SCN5A_Y1495_K1493R_YF] | 0.772
NTGLEYIKFTW [HRH1_Y386_D385E] | 1.11
LGSWTYPKTVS [ROS1_Y144_T145P] | 0.813
MAFDRYVAICS [OR8D4_Y123_C120Y_YF] | 0.724
SDGHEYIYVDP [PDGFRB_Y579] | 0.779
ERDYTYEELLN [EIF2S2_Y176] | 0.823
FEEDSYSHVMA [FDPS_Y388_I391V_YF] | 0.983

Biological target: SHP2-C SH2
Test: as above

Sequence | SH2 binding enrichment
YSSLGYPLPEG [ZSWIM4_Y87_P89L] | 10.8
FAASSYSFSDL [EMD_Y59_S54F] | 0.631
TVLWQYTGTRP [UGT1A1_Y337_R336Q] | 0.793
SHNELYYEEAE [VANGL1_Y344] | 0.931
KQQEIYQELTQ [CD209_Y239] | 0.673
DKMEAYNIDET [TEKT4_Y210] | 0.685
ADYPDCKYRPR [SOX11_Y116_Y116C] | 0.799
HESEIYGKVCF [CSRP3_Y57_C58G_YF] | 0.672
RRFVFYFSFLL [PTEN_Y177_YF] | 0.688
LEQDEYALRSH [HADHB_Y244] | 0.576
RLLVVYPWTQR [HBB_Y36] | 2.05
SESSFYKSLNL [NGEF_Y289_A286S_YF] | 0.495
KSNSDYVDVLP [SH2D1B_Y127_N122K] | 0.479
SSDKVYAHQMD [MLH1_Y379_V384D] | 0.552
CSEETYRLMLQ [RET_Y981_M980T] | 0.553
LMIEEYLTKEP [BAG3_Y457_L462P] | 0.953
RLLVVFPWTQR [HBB_Y36_Y36F] | 1.95

Sequence | SH2 binding enrichment
PARLEYFENEK [IRS1_Y46_YF] | 0.817
IIRYNYLLDVL [FGFR4_Y237_S232I] | 1.66
APQYTYAQGGQ [FLNA_Y1763] | 1.26
SPRDTYSDRIG [CTPS1_Y567_S571I] | 0.617
RISRKYKKVRF [F8_Y442_G439S] | 0.636
VLRQVYVDFEG [KMT2B_Y1707_R1705Q] | 1
DHTVNYVLKCR [PLEKHG4_Y1068_R1064H] | 0.63
DLDTDYGSGYP [RNASEH2A_Y206] | 0.565
FSQETYFRVSN [ABCD1_Y180_Q178E_YF] | 0.544
EQKRFYNAMKK [SCN5A_Y1495_K1493R_YF] | 0.758
NTGLEYIKFTW [HRH1_Y386_D385E] | 0.778
LGSWTYPKTVS [ROS1_Y144_T145P] | 0.805
MAFDRYVAICS [OR8D4_Y123_C120Y_YF] | 0.64
SDGHEYIYVDP [PDGFRB_Y579] | 0.662
ERDYTYEELLN [EIF2S2_Y176] | 0.737
FEEDSYSHVMA [FDPS_Y388_I391V_YF] | 0.724

Biological target: c-Src SH2
Test: as above

Sequence | SH2 binding enrichment
YSSLGYPLPEG [ZSWIM4_Y87_P89L] | 2.8
FAASSYSFSDL [EMD_Y59_S54F] | 0.825
TVLWQYTGTRP [UGT1A1_Y337_R336Q] | 0.455
SHNELYYEEAE [VANGL1_Y344] | 0.799
KQQEIYQELTQ [CD209_Y239] | 0.585
DKMEAYNIDET [TEKT4_Y210] | 0.528
ADYPDCKYRPR [SOX11_Y116_Y116C] | 0.634
HESEIYGKVCF [CSRP3_Y57_C58G_YF] | 0.456
RRFVFYFSFLL [PTEN_Y177_YF] | 0.426
LEQDEYALRSH [HADHB_Y244] | 0.504
RLLVVYPWTQR [HBB_Y36] | 1.41
SESSFYKSLNL [NGEF_Y289_A286S_YF] | 0.48
KSNSDYVDVLP [SH2D1B_Y127_N122K] | 0.475
SSDKVYAHQMD [MLH1_Y379_V384D] | 0.576
CSEETYRLMLQ [RET_Y981_M980T] | 0.467
LMIEEYLTKEP [BAG3_Y457_L462P] | 0.552
RLLVVFPWTQR [HBB_Y36_Y36F] | 1.23

Sequence | SH2 binding enrichment
PARLEYFENEK [IRS1_Y46_YF] | 0.647
IIRYNYLLDVL [FGFR4_Y237_S232I] | 2.69
APQYTYAQGGQ [FLNA_Y1763] | 2.62
SPRDTYSDRIG [CTPS1_Y567_S571I] | 0.438
RISRKYKKVRF [F8_Y442_G439S] | 0.391
VLRQVYVDFEG [KMT2B_Y1707_R1705Q] | 0.938
DHTVNYVLKCR [PLEKHG4_Y1068_R1064H] | 0.346
DLDTDYGSGYP [RNASEH2A_Y206] | 0.439
FSQETYFRVSN [ABCD1_Y180_Q178E_YF] | 0.466
EQKRFYNAMKK [SCN5A_Y1495_K1493R_YF] | 0.86
NTGLEYIKFTW [HRH1_Y386_D385E] | 0.614
LGSWTYPKTVS [ROS1_Y144_T145P] | 0.496
MAFDRYVAICS [OR8D4_Y123_C120Y_YF] | 1.08
SDGHEYIYVDP [PDGFRB_Y579] | 0.557
ERDYTYEELLN [EIF2S2_Y176] | 1.1
FEEDSYSHVMA [FDPS_Y388_I391V_YF] | 0.584

Reference: the supplement of paper PMC10065799, “High-throughput profiling of sequence recognition by tyrosine kinases and SH2 domains using bacterial peptide display” (eLife, 2023)
